Experimental findings from patent publication US20230265151A1, “GIP/GLP1 CO-AGONIST COMPOUNDS” (priority 2020, published 2023) are described below.

As a reminder, the Ki is the dissociation constant of the complex between target and ligand, obtained from inhibition or displacement. A higher Ki goes with a looser hold on the target.

B1: Y-Aib-EGT-αMeF(2F)-TSD-4Pal-Aib-I-αMeL-LD-Orn-QAQ-Aib-Orn-FIK((γ-Glu)-(2-[2-(2-Amino-ethoxy)-ethoxy]-acetyl)2-(γ-Glu)-(10-(4-carboxyphenoxy)decanoyl))-αMeY-LIK( … (peptide)
peptide: YXEGTXTSDXXIXLDXQAQXXFIKXLIKGGPSSGAPPPS
modifications: Aib2, αMeF(2F)6, 4Pal10, Aib11, αMeL13, Orn16, Aib20, Orn21, K24(Z1), αMeY25, K28(Z1), C-term NH2; Z1=(γ-Glu)-AEEA2-(γ-Glu)-(10-(4-carboxyphenoxy)decanoyl)
B2: Y-Aib-EGT-αMeF(2F)-TSD-4Pal-Aib-I-αMeL-LD-Orn-QAQ-Aib-Orn-FIK(PEG4-(γ-Glu)-(10-(4-carboxyphenoxy)decanoyl))-αMeY-LIK(PEG4-(γ-Glu)-(10-(4-carboxyphenoxy)decanoyl … (peptide)
peptide: B1 peptide
modifications: Aib2, αMeF(2F)6, 4Pal10, Aib11, αMeL13, Orn16, Aib20, Orn21, K24(Z1), αMeY25, K28(Z1), C-term NH2; Z1=PEG4-(γ-Glu)-(10-(4-carboxyphenoxy)decanoyl)
B3: Y-Aib-EGT-αMeF(2F)-TSD-4Pal-Aib-I-αMeL-LD-Orn-QAQ-Aib-Orn-FIK(PEG3-(γ-Glu)-CO-(CH2)12-CO2H)-αMeY-LIK(PEG3-(γ-Glu)-CO-(CH2)12-CO2H)GGPSSGAPPPS-NH2 (peptide)
peptide: B1 peptide
modifications: Aib2, αMeF(2F)6, 4Pal10, Aib11, αMeL13, Orn16, Aib20, Orn21, K24(Z1), αMeY25, K28(Z1), C-term NH2; Z1=PEG3-(γ-Glu)-CO-(CH2)12-CO2H
B4: Y-Aib-EGT-αMeF(2F)-TSD-4Pal-Aib-I-αMeL-LD-Orn-QAQ-Aib-Orn-FIK(((2-[2-(2-Amino-ethoxy)-ethoxy]-acetyl)-Trx-(γ-Glu)-(10-(4-carboxyphenoxy)decanoyl))-αMeY-LIK(((2- … (peptide)
peptide: B1 peptide
modifications: Aib2, αMeF(2F)6, 4Pal10, Aib11, αMeL13, Orn16, Aib20, Orn21, K24(Z1), αMeY25, K28(Z1), C-term NH2; Z1=AEEA-Trx-(γ-Glu)-(10-(4-carboxyphenoxy)decanoyl)
B5: Y-Aib-EGT-αMeF(2F)-TSD-4Pal-Aib-I-αMeL-LD-Orn-QAQ-Aib-Orn-FIK((2-[2-(2-Amino-ethoxy)-ethoxy]-acetyl)-(γ-Glu)3-CO-(CH2)12-CO2H)-αMeY-LIK((2-[2-(2-Amino-ethoxy)-e … (peptide)
peptide: B1 peptide
modifications: Aib2, αMeF(2F)6, 4Pal10, Aib11, αMeL13, Orn16, Aib20, Orn21, K24(Z1), αMeY25, K28(Z1), C-term NH2; Z1=AEEA-(γ-Glu)3-CO-(CH2)12-CO2H
B6: Y-Aib-EGT-αMeF(2F)-TSD-4Pal-Aib-I-αMeL-LD-Orn-QAQ-Aib-Orn-FIK((2-[2-(2-Amino-ethoxy)-ethoxy]-acetyl)2-(γ-Glu)2-CO-(CH2)12-CO2H)-αMeY-LIK((2-[2-(2-Amino-ethoxy)- … (peptide)
peptide: B1 peptide
modifications: Aib2, αMeF(2F)6, 4Pal10, Aib11, αMeL13, Orn16, Aib20, Orn21, K24(Z1), αMeY25, K28(Z1), C-term NH2; Z1=AEEA2-(γ-Glu)2-CO-(CH2)12-CO2H
B7: Y-Aib-EGT-αMeF(2F)-TSD-4Pal-Aib-I-αMeL-LD-Orn-K(((2-[2-(2-Amino-ethoxy)-ethoxy]-acetyl)-Aoc-CO-(CH2)12-CO2H)AQ-Aib-EFI-(D-Glu)-αMeY-LIK(((2-[2-(2-Amino-ethoxy)- … (peptide)
peptide: B1 peptide with Q17K, X21E, K24X
modifications: Aib2, αMeF(2F)6, 4Pal10, Aib11, αMeL13, Orn16, K17(Z1), Aib20, D-Glu24, αMeY25, K28(Z1), C-term NH2; Z1=AEEA-Aoc-CO-(CH2)12-CO2H
B8: Y-Aib-EGT-αMeF(2F)-TSD-4Pal-Aib-I-αMeL-LD-Orn-QAQ-Aib-Orn-FIK(((2-[2-(2-Amino-ethoxy)-ethoxy]-acetyl)2--Trx-(γ-Glu)-CO-(CH2)12-CO2H)-αMeY-LIK(((2-[2-(2-Amino-et … (peptide)
peptide: B1 peptide
modifications: Aib2, αMeF(2F)6, 4Pal10, Aib11, αMeL13, Orn16, Aib20, Orn21, K24(Z1), αMeY25, K28(Z1), C-term NH2; Z1=AEEA2-Trx-(γ-Glu)-CO-(CH2)12-CO2H
B9: Y-Aib-EGT-αMeF(2F)-TSD-hY-SI-αMeL-LD-Orn-QAQ-Aib-Orn-FIK((2-[2-(2-Amino-ethoxy)-ethoxy]-acetyl)2-(γ-Glu)-CO-(CH2)12-CO2H)-αMeY-LIK((2-[2-(2-Amino-ethoxy)-ethoxy … (peptide)
peptide: B1 peptide with X11S
modifications: Aib2, αMeF(2F)6, hY10 (so in the source), αMeL13, Orn16, Aib20, Orn21, K24(Z1), αMeY25, K28(Z1), C-term NH2; Z1=AEEA2-(γ-Glu)-CO-(CH2)12-CO2H

Changes are numbered by the printed parent chain.

T1 sequence (P47871 26-477): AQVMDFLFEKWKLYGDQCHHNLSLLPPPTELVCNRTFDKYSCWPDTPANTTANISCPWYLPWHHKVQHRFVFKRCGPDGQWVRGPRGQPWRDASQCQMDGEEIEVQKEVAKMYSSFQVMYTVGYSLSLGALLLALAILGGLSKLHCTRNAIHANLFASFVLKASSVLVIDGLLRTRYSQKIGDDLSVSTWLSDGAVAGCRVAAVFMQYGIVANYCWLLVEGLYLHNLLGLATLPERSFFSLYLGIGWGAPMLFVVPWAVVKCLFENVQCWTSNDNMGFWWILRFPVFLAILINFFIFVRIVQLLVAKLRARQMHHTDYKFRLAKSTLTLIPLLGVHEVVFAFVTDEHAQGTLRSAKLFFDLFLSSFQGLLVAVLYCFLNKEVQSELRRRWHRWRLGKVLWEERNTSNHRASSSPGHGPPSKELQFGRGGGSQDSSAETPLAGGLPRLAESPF

The first assay addresses T1, human glucagon receptor (human, UniProt P47871 26-477).
T1 construct: whole, on cells; also called hGCGR; hGcgR
The assay can be described thus: SPA competition vs [125I]-Gcg, hGcgR membranes.
Take B1: the Ki came out at 151 nM.
On the same count and under the same terms, the result for B2 reads 101 nM.
On the same count and under the same terms, the result for B3 reads 170 nM; that for B4, 162 nM; that for B5, 115 nM.
The same measure, in the same setting: to B6 belongs 382 nM; to B7, 304 nM.
B8 displayed a Ki of 945 nM.
On the same count and under the same terms, to B9 belongs 94.4 nM.

For the next assay, the target named is T2, human GIP receptor (human, UniProt P48546 22-466).
T2 construct: whole, on cells; also called hGIPR; human glucose-dependent insulinotropic polypeptide receptor
T2 sequence (looked up): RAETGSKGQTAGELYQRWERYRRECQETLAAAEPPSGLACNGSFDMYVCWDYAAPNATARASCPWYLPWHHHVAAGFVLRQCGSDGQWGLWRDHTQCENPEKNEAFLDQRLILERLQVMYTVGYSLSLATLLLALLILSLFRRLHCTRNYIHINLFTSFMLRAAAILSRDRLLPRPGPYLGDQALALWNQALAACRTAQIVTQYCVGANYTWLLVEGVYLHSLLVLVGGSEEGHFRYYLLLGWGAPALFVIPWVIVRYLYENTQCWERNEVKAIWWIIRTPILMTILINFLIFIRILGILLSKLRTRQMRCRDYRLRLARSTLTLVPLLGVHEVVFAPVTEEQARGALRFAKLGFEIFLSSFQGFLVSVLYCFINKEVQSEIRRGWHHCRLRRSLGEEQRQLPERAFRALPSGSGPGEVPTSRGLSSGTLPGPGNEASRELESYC
The assay can be described thus: SPA competition vs [125I]-GIP, hGIPR membranes.
The molecule B1 displayed a Ki of 0.0236 nM.
Same read-out and setting: to B2 belongs 0.01 nM; to B3, 0.0232 nM; to B4, 0.0319 nM.
In turn, B5 gave a Ki of 0.046 nM.
Still for that read-out and setting: the result for B6 reads 0.0427 nM; that for B7, 0.0464 nM.
The same measure, in the same setting: the result for B8 reads 0.0346 nM.
Still for that read-out and setting: to B9 belongs 0.0301 nM.

The next assay addresses T3, human GLP-1 receptor (human, UniProt P43220 24-463).
T3 construct: whole, on cells; also called hGLP-1R; human glucagon-like peptide-1 receptor
Briefly: SPA competition vs [125I]-GLP-1, hGLP-1R membranes. In short, it runs like this:
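Competition binding in 25 mM HEPES pH 7.4, 2.5 mM CaCl₂, 1 mM MgCl₂, 0.1% bacitracin, 0.003% TWEEN-20, EDTA-free protease inhibitors. IC₅₀ from four-parameter nonlinear fit; Kᵢ given as geometric mean ± SEM, n = independent replicates on different days.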
Molecule B1 showed a Ki of 0.263 nM.
On the same count and under the same terms, to B2 belongs 0.14 nM; to B3, 0.266 nM; to B4, 0.169 nM.
On to B5, for which the Ki was 0.299 nM.
On the same count and under the same terms, to B6 belongs 0.343 nM; to B7, 1.29 nM; to B8, 0.121 nM.
The same measure, in the same setting: the result for B9 reads 0.182 nM.
